The assay addresses FevR of F. holarctica LVS fused to the Zif protein (F. holarctica LVS). The assay can be described thus: two-hybrid.

Data on one substance can be found in article PMC3792966.

In the case of “MglA/SspA complex of the bridge two-hybrid system (MglA of F. tularensis SCHU S4 fused to ω, with Ss”, the β-galactosidase activity in strain AW23 after 300 min came to 1070 AU and the β-galactosidase activity in strain AW24 after 300 min was found to be 1300 AU.
